From article PMC9925492, “Reduction of phenolics in faba bean meal using recombinantly produced and purified Bacillus ligniniphilus catechol 2,3-dioxygenase” (Bioresources and Bioprocessing, 2023) come the findings set out here.

This series has as its system Cc1cccc(O)c1O. The series is described as follows: purified protein. The note with it: 10 mM Mn2+, 50 mM phosphate pH 7.5, 32.5 °C.

Regarding “BLC23O (Halalkalibacterium ligniniphilum)”, the Km amounted to 379 ± 86 µM and the turnover number (kcat) turned out to be 0.13 ± 0.01 s⁻¹.

By Km is commonly meant the concentration of substrate that gives half-maximal velocity. Usually kcat stands for the number of substrate molecules converted per active site and unit of time at saturation.
